Test results: PMC3231237

What was measured:
Case12 [1] = test: SEC-MALS; sensor at 4 mg/mL, Ca2+-saturated (5 mM CaCl2 added, 1 h); Superdex 200, 50 mM Tris-HCl, 300 mM NaCl, pH 7.4, 1 mM CaCl2; monomer to dimer
Case12 [2] = test: SEC-MALS; sensor at 16 mg/mL, Ca2+-saturated (5 mM CaCl2 added, 1 h); Superdex 200, 50 mM Tris-HCl, 300 mM NaCl, pH 7.4, 1 mM CaCl2; monomer to dimer
Case16 [3] = test: SEC-MALS; sensor at 4 mg/mL, Ca2+-saturated (5 mM CaCl2 added, 1 h); Superdex 200, 50 mM Tris-HCl, 300 mM NaCl, pH 7.4, 1 mM CaCl2; monomer to dimer
Case16 [4] = test: SEC-MALS; sensor at 16 mg/mL, Ca2+-saturated (5 mM CaCl2 added, 1 h); Superdex 200, 50 mM Tris-HCl, 300 mM NaCl, pH 7.4, 1 mM CaCl2; monomer to dimer

Substance	percent dimer (Case12 [1])	percent dimer (Case12 [2])	stoichiometry N (Case12 [2])	percent dimer (Case16 [3])	percent dimer (Case16 [4])	stoichiometry N (Case16 [4])
Case12	3%	22%	2			
Case16				2%	26%	2
